{"source": "the supplement of paper PMC12042874", "note": "± gives the uncertainty stated by the source.", "data": [{"assay": "amyloid nucleation score (Sup35N fusion, yeast selection) (log enrichment); library NNK2; higher = more nucleation; inactive = no reads after selection", "how_it_was_run": "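Sup35N fusions to peptides of 20 random codons were expressed in psi-negative yeast, induced 24 hours with 100 μM copper sulfate, and grown 7 days at 30°C on medium lacking adenine and uracil. Input and output plasmid inserts were sequenced by Illumina. The nucleation score is the DiMSum log enrichment of output over input reads, centred on the mode score of non-aggregating sequences. Sequences with under 100 input reads were excluded.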", "values": [{"substance": "CYGYMIMSAFMVGHWEPDRM", "amyloid nucleation score": "0.205 ± 0.77"}, {"substance": "CYLGVKCVLGWQSWRVVYSN", "amyloid nucleation score": "inactive"}, {"substance": "CYNVGEGIVARIRGGSKGLK", "amyloid nucleation score": "0.619 ± 0.81"}, {"substance": "CYRNNWTMWVVSQRYHRNGK", "amyloid nucleation score": "-0.289 ± 0.22"}, {"substance": "CYRPDRPIITIDLVCVRFS", "amyloid nucleation score": "1.9 ± 0.2"}, {"substance": "CYSKLNASSVCIKFLPSQHE", "amyloid nucleation score": "-0.314 ± 0.27"}, {"substance": "CYWERWAS", "amyloid nucleation score": "-1.84 ± 0.78"}, {"substance": "CYYFLFNS", "amyloid nucleation score": "2.31 ± 0.062"}, {"substance": "DAAHSFYLSSGNESFVLELT", "amyloid nucleation score": "-0.327 ± 0.63"}, {"substance": "DALDTRKLYN", "amyloid nucleation score": "inactive"}, {"substance": "DCPLYRWDTWRLSGSRT", "amyloid nucleation score": "inactive"}, {"substance": "DCSYYPSGIFMGLMFNLIAM", "amyloid nucleation score": "3.23 ± 0.064"}, {"substance": "DCYSQPMLRVLDSVAHSVWF", "amyloid nucleation score": "0.369 ± 0.43"}, {"substance": "DDFRGIAGIWWRG", "amyloid nucleation score": "0.785 ± 0.51"}, {"substance": "DDIFNWFGVLGSNPLMVSVG", "amyloid nucleation score": "0.811 ± 0.33"}, {"substance": "DDLGMTFRLG", "amyloid nucleation score": "-0.337 ± 0.79"}, {"substance": "DDLLIRYC", "amyloid nucleation score": "-0.022 ± 0.21"}, {"substance": "DDVSIL", "amyloid nucleation score": "0.14 ± 1"}, {"substance": "DEGSNIGHGSLDIHRDCALL", "amyloid nucleation score": "-0.264 ± 0.23"}, {"substance": "DERGMCSLWSRCEYV", "amyloid nucleation score": "-0.287 ± 0.29"}, {"substance": "DERSLLDLHYCR", "amyloid nucleation score": "0.912 ± 0.43"}, {"substance": "DESWETIFLYKCRGQNW", "amyloid nucleation score": "-0.213 ± 1.1"}, {"substance": "DFALALVYTSMCLVVLYSML", "amyloid nucleation score": "4.4 ± 0.063"}, {"substance": "DFANFMGCMVNEAPRLHFAL", "amyloid nucleation score": "0.404 ± 0.38"}, {"substance": "DFIITVL", "amyloid nucleation score": "-1.05 ± 0.78"}, {"substance": "DFIKMVV", "amyloid nucleation score": "3.73 ± 0.12"}, {"substance": "DFITVYECHCRIFGCVDREA", "amyloid nucleation score": "-0.352 ± 0.5"}, {"substance": "DFLSVYSYIKWWAA", "amyloid nucleation score": "-0.886 ± 0.49"}, {"substance": "DFQIFYFARLFRTV", "amyloid nucleation score": "-0.681 ± 0.79"}, {"substance": "DFSFVANCSDYLLNILFKGE", "amyloid nucleation score": "-0.066 ± 0.74"}, {"substance": "DGAGKYTSPSDYDDRYRLAV", "amyloid nucleation score": "0.466 ± 0.17"}, {"substance": "DGCDNYDSRESKTLFMRMMW", "amyloid nucleation score": "1.11 ± 0.43"}, {"substance": "DGIDTCGMCL", "amyloid nucleation score": "-0.096 ± 0.63"}, {"substance": "DGNNVVIWLLWLSANMTGAG", "amyloid nucleation score": "1.97 ± 0.13"}, {"substance": "DGSSDRQGVKFFVDTSFLSR", "amyloid nucleation score": "-0.593 ± 0.48"}, {"substance": "DGTNFDR", "amyloid nucleation score": "-0.92 ± 0.37"}, {"substance": "DHAGWCSDRWVTDFDFAMGN", "amyloid nucleation score": "0.829 ± 0.5"}, {"substance": "DICAIIVHWCDDLNVAYWYL", "amyloid nucleation score": "0.058 ± 1"}, {"substance": "DIKAWLFVRSDIVDGGFADT", "amyloid nucleation score": "-0.405 ± 0.29"}, {"substance": "DIMAAIYMDG", "amyloid nucleation score": "0.715 ± 0.43"}, {"substance": "DINVCRVYEY", "amyloid nucleation score": "-0.011 ± 1.1"}, {"substance": "DIPTMVNGILYFTGYDPRVS", "amyloid nucleation score": "-0.647 ± 1.1"}, {"substance": "DIRIL", "amyloid nucleation score": "-0.635 ± 0.44"}, {"substance": "DISVRTMFVS", "amyloid nucleation score": "-0.392 ± 0.48"}, {"substance": "DISVYSDFVLSFICADVHPS", "amyloid nucleation score": "5.02 ± 0.04"}, {"substance": "DISWYCGDHGSVVVECRNDL", "amyloid nucleation score": "2.63 ± 0.069"}, {"substance": "DKKMVTTPTMPDK", "amyloid nucleation score": "0.977 ± 0.2"}, {"substance": "DKLLMVSIFFSDSMTSLS", "amyloid nucleation score": "inactive"}, {"substance": "DKWLWEL", "amyloid nucleation score": "0.575 ± 0.32"}, {"substance": "DLDRPYRDIFGTT", "amyloid nucleation score": "inactive"}, {"substance": "DLIMETYHLVSKCTFCGIEN", "amyloid nucleation score": "6.473 ± 0.06"}, {"substance": "DLKYLGLA", "amyloid nucleation score": "-0.535 ± 0.53"}, {"substance": "DLVMVSVSADVHSSNS", "amyloid nucleation score": "0.163 ± 0.5"}, {"substance": "DLWGTMKFNF", "amyloid nucleation score": "inactive"}, {"substance": "DLWRLMEIFMRSMRWHGITT", "amyloid nucleation score": "-0.456 ± 0.32"}, {"substance": "DLWTAWSRLHLDGG", "amyloid nucleation score": "0.431 ± 0.23"}, {"substance": "DLYPENFASMRFRVTTSLVF", "amyloid nucleation score": "inactive"}, {"substance": "DLYSHSFNLHGYSMRVCYNE", "amyloid nucleation score": "0.147 ± 0.65"}, {"substance": "DLYWSMLLYVMSRVYE", "amyloid nucleation score": "0.249 ± 0.64"}, {"substance": "DMFIVYSSLYRSFLIFESLH", "amyloid nucleation score": "-2.42 ± 0.75"}, {"substance": "DMGVFSLLDNK", "amyloid nucleation score": "0.579 ± 0.66"}, {"substance": "DMLEKKE", "amyloid nucleation score": "5.921 ± 0.059"}, {"substance": "DMQGRVVRR", "amyloid nucleation score": "-0.855 ± 0.61"}, {"substance": "DMYDLASRSKRELF", "amyloid nucleation score": "inactive"}, {"substance": "DNCIDSCCYPLVSRVLEL", "amyloid nucleation score": "0.354 ± 0.64"}, {"substance": "DNCSLPSGTMGSDNSGGRIQ", "amyloid nucleation score": "-0.444 ± 0.32"}, {"substance": "DNCVIRALQRRNVLVV", "amyloid nucleation score": "-1.18 ± 0.39"}, {"substance": "DNGNWVCWLHVLGQGSHRKA", "amyloid nucleation score": "inactive"}, {"substance": "DNLVCCSCSHLIVWTLSVGA", "amyloid nucleation score": "9.548 ± 0.035"}, {"substance": "DNMSNYSGACLSNYL", "amyloid nucleation score": "-0.292 ± 0.56"}, {"substance": "DNMWV", "amyloid nucleation score": "0.388 ± 0.54"}, {"substance": "DNWVLYNCFTTSEKLSM", "amyloid nucleation score": "0.553 ± 0.19"}, {"substance": "DRACPYLWVPLRLRGLDTII", "amyloid nucleation score": "-1.32 ± 0.44"}, {"substance": "DRAWQFPGDRAINGVRSAFF", "amyloid nucleation score": "-1.04 ± 0.63"}, {"substance": "DRLGSRERDG", "amyloid nucleation score": "0.74 ± 0.2"}, {"substance": "DRLVGVTLYSTVYSDYSSSG", "amyloid nucleation score": "-0.768 ± 1.1"}, {"substance": "DRNMRNLEIISVH", "amyloid nucleation score": "-0.091 ± 0.23"}, {"substance": "DRNYVQNSSTKMHYWASFLT", "amyloid nucleation score": "1.71 ± 0.17"}, {"substance": "DSDHIYNRERQVIFGG", "amyloid nucleation score": "-0.607 ± 0.5"}, {"substance": "DSDSFYIMPMVHMPNNFHRD", "amyloid nucleation score": "-1.41 ± 1.1"}, {"substance": "DSFLTLTCGFRSNALYCWGV", "amyloid nucleation score": "-0.663 ± 0.55"}, {"substance": "DSGLVLNAGIIGSV", "amyloid nucleation score": "-1.11 ± 0.49"}, {"substance": "DSGRA", "amyloid nucleation score": "-0.351 ± 0.63"}, {"substance": "DSNDRWVW", "amyloid nucleation score": "-0.409 ± 0.76"}, {"substance": "DSNMRMIA", "amyloid nucleation score": "0.448 ± 0.6"}, {"substance": "DSPRRTFIVQASHFTVYLTR", "amyloid nucleation score": "8.111 ± 0.058"}, {"substance": "DSRCDRAPDCGMNHCIYILC", "amyloid nucleation score": "6.76 ± 0.082"}]}]}
